Series [1] concerns the target BifR (biofilm regulator), MarR homologue from Burkholderia thailandensis E264 (Burkholderia thailandensis E264). Nature of the series: SEC. For orientation: Size exclusion chromatography separates by hydrodynamic size, large species first.
For series [2] the target is unchanged. Description: SEC. The source holds these as a separate data set.
The target is the same in series [3]. Nature of the series: cross-linking.
The subject of series [4] is BifR (Burkholderia thailandensis E264). Nature of the series: EMSA. Background: In EMSA bound probe runs differently from free probe, usually more slowly.
For series [5] the test system is unchanged. Nature of the series: EMSA. The source holds these as a separate data set.

Read-outs that look alike come from different tables or passages of the source.

In general, stoichiometry N refers to the number of molecules, sites or subunits per partner or assembly. Consider “BifR (biofilm regulator), MarR homologue from Burkholderia thailandensis E264 (natural protein)”, for which the values for the stoichiometry N in series [1], in series [2] and in series [3] were 4, 2 and 2, respectively.

The Kd is the concentration at which binding is half-saturated. Low readings indicate tighter binding, high ones weaker binding. Consider 355 bp ecsC-emrB operator DNA, for which the figures for the Kd in series [4] and in series [5] were 1.4 nM and 0.9 nM, respectively.

Values taken from PMC5565208.
